This test addresses T1, LRP-1 (Homo sapiens, UniProt Q07954).
T1 construct: Proteins were extracted from colon cancer tissues of each case according to radiation irradiation; from tissue; host or cells: patient colon cancer tissue (0 Gy / 2 Gy) transplanted and subcultured in nude mice
The test is described as follows: Immunoprecipitation assay of TPSFSKI peptide phage and LRP-1, confirmed by western blotting. The test is classed as binding. Particulars: proteins extracted from colon cancer tissues, 0 Gy/2 Gy irradiation, LRP-1 and M13 antibodies, IgG beads. From the text:
Lysate: 0 Gy/2 Gy protein extracted from radiation colon cancer tissue, IP (B5 phage): 0 Gy/2 Gy Immunoprecipitation with a specific peptide phage in protein extracted from radiation colon cancer tissue, IP (wt phage): 0 Gy/2 Gy Immunoprecipitation in protein extracted from radiation colon cancer tissue with phage without peptide, IP (w/o Ab): 0 Gy/2 Gy Immunoprecipitation without antibody in protein extracted from radiation colon cancer tissue, phage lysate: protein extracted from peptide phage targeting by irradiation in radiation resistant colon cancer tissue, Antibody: LRP-1 antibody
Based on the indirect verification that LRP-1 is a binding partner protein of the TPSFSKI peptide sequence in Examples 3 to 5, an immunoprecipitation assay was performed to directly determine whether […] was bound to the TPSFSKI sequence. Proteins were extracted from colon cancer tissues of each case according to radiation irradiation, and immunoprecipitation was performed using LRP-1 and M13 antibodies and IgG beads.
On the technique in general: Immunoblotting shows a protein as a band on a membrane.

The values that follow come from patent US20190203302A1, “BIOMARKER C[…]-1 AS ACTIVE INGREDIENT, FOR DIAGNOSIS OF RADIATION-RESISTANT CANCER OR PREDICTION OF RADIATION THERAPY PROGNOSIS” (UNIVERSITY OF ULSAN FOUNDATION FOR INDUSTRY COOPERATION, priority 2016, published 2019).

T1 sequence (Q07954 20-4544): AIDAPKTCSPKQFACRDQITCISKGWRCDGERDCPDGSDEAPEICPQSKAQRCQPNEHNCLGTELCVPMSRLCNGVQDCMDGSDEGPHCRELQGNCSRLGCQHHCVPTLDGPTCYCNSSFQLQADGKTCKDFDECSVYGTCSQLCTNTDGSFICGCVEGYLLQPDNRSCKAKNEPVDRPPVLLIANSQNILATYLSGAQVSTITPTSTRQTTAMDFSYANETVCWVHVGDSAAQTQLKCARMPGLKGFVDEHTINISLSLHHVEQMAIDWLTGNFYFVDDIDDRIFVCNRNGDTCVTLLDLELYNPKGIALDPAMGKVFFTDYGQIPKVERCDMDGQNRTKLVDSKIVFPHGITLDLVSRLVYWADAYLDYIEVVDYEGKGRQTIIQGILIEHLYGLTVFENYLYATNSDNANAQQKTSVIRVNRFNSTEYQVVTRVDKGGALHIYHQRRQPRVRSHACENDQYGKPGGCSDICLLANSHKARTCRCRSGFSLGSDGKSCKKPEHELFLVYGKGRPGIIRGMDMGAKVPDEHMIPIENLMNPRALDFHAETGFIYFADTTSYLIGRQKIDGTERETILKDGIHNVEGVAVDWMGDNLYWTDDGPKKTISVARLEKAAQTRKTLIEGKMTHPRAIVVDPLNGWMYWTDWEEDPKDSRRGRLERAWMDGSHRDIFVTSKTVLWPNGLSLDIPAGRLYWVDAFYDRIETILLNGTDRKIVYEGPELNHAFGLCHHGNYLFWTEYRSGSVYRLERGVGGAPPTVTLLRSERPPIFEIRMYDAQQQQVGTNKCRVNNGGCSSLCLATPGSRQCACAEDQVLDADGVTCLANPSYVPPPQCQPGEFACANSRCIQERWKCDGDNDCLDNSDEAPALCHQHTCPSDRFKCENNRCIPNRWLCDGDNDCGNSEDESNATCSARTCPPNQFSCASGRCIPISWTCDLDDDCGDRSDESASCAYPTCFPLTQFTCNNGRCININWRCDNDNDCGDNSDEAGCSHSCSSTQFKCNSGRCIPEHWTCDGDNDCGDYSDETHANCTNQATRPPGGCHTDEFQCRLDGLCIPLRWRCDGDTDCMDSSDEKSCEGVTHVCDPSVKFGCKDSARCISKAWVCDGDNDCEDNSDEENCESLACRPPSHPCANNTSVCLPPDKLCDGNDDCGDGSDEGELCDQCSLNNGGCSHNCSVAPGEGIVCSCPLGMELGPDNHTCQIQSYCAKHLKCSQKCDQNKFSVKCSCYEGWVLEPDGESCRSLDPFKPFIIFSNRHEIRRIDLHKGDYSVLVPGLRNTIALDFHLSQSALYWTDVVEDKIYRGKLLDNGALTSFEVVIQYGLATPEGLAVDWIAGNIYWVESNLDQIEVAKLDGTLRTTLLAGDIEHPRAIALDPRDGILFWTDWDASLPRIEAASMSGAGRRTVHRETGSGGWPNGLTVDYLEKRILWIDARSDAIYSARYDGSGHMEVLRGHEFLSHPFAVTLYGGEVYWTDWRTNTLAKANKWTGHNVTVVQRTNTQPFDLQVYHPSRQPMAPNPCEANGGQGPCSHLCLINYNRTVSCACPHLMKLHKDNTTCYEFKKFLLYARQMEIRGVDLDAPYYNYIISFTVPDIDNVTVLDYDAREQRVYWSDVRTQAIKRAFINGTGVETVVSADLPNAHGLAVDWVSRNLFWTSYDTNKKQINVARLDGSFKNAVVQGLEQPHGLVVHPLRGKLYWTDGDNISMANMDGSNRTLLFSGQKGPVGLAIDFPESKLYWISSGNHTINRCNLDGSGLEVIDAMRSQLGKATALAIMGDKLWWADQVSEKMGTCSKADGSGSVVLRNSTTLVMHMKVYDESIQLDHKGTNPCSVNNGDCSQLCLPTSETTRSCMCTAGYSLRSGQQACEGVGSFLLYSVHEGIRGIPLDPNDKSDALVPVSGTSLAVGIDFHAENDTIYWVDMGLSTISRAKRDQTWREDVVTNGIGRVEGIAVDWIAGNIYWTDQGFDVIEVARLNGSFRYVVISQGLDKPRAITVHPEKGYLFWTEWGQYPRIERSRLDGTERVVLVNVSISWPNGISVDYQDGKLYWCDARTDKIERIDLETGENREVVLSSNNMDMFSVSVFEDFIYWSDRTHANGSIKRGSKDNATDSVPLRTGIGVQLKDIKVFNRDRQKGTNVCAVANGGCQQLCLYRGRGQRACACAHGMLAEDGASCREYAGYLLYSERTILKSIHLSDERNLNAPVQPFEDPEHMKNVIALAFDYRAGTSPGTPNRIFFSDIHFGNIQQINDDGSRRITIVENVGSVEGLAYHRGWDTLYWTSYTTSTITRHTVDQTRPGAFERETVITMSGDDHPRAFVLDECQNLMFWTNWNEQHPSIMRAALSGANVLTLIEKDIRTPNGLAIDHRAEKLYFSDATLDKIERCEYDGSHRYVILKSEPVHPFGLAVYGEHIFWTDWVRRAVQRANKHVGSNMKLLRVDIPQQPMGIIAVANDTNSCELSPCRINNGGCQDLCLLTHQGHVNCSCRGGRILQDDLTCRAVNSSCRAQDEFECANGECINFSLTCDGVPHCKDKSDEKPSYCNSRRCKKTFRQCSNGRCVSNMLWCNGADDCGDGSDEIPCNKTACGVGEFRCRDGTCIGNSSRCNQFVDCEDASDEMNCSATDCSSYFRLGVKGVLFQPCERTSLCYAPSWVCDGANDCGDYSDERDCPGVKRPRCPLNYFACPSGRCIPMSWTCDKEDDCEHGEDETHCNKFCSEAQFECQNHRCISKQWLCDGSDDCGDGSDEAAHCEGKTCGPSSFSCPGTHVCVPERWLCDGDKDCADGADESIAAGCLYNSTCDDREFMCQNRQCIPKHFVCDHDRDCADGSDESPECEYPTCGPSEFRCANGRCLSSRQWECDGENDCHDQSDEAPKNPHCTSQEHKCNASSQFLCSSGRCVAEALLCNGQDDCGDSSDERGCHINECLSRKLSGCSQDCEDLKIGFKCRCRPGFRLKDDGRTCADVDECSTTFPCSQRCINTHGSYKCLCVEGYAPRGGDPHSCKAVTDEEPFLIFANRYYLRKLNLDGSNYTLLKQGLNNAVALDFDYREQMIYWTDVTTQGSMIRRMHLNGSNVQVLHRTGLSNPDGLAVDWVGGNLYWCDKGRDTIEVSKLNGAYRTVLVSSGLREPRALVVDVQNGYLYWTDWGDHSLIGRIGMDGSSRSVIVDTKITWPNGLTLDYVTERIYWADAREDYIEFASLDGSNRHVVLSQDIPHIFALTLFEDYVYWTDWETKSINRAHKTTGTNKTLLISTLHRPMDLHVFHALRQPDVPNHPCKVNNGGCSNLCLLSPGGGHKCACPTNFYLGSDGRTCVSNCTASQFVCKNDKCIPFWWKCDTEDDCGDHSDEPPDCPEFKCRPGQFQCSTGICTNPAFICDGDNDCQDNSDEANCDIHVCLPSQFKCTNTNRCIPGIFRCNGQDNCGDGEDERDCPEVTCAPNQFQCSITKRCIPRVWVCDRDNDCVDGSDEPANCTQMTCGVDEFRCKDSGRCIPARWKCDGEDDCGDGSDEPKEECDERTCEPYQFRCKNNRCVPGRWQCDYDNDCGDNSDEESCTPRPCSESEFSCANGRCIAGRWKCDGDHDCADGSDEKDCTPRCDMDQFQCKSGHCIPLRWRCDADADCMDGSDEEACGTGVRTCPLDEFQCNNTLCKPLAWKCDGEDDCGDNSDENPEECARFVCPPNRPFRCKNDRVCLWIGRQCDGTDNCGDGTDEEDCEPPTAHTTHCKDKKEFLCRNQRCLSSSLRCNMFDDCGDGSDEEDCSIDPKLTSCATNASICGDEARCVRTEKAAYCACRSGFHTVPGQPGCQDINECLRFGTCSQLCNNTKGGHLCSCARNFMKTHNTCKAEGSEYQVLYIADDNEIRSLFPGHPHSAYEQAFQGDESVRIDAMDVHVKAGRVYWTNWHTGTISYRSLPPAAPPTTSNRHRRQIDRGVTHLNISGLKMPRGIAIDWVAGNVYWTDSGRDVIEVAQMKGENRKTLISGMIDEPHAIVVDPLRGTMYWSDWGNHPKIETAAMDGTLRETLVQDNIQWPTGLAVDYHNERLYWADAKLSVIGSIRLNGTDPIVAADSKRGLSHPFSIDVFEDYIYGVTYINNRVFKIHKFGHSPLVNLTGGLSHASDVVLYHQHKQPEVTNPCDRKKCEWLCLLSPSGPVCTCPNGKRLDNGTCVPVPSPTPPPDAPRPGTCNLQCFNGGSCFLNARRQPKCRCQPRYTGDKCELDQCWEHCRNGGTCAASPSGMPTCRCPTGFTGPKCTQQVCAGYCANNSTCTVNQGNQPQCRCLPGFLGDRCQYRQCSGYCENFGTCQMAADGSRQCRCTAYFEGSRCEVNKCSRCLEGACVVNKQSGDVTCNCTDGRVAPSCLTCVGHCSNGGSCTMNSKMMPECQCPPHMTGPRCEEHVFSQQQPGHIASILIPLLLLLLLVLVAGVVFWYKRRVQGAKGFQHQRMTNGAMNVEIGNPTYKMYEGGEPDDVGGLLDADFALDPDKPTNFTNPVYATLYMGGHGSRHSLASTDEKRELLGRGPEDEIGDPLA

In the case of “TPSFSKI [TPSFSKI peptide, used as peptide phage]”, the “binding of LRP-1 to the TPSFSKI sequence (immunoprecipitation)” value is on record as “LRP-1 is a binding partner protein of TPSFSKI peptide”.
